Test results from publication PMC2680067 (European journal of human genetics : EJHG, 2008).

Target: the molecule itself
Assay: cross-linking

B1: myc-EGFP-Trim50 (full-length mouse Trim50), expressed in U2OS cells (natural protein)
chain: MAWRLTVPELQDQLQCPICLEVFKEPLMLQCGHSYCKDCLDNLSQHLDSELCCPVCRQSVDCSSSPPNVSLARVIDALRLPGDIEPTVCVHHRNPLSLFCEKDQEFICGLCGLLGSHQHHRVTPVSTVYSRMKEELAGRISELKEEHRNVEEHIGKLVNNRTRIINESDVFSWVIRREFQELHHLVDEEKARCLEGLEGHTRGLVASLDMQLEQAQGTQERLAQAEQVLEQFGNESHHEFIRFHSVASRAEVQQARPLEGVFSPISFKPALHQADIKLTVWKRLFRKVLPAPASLKLDPATAHPLLELSKGNTVVHCGLLAQRRASQPERFDYSTCVLASKGFSWGRHYWEVVVGSKSDWRLGVIKGTASRKGKLNKSPEHGVWLIGLKEGRVYEAFGCPRLPLPVAGHPHRIGVYLHYEQGELTFFDADRPDDLRTLYTFQADFQGKLYPILDTCWHERGSNSLPMVLPPPSGPGHFTLGQV
Question: For B1, which “stoichiometry N” value is on record?
Answer: 3
